The target in the test is T1, Fas (mouse (endogenous in WEHI-231)) (UniProt P25446).
T1 sequence: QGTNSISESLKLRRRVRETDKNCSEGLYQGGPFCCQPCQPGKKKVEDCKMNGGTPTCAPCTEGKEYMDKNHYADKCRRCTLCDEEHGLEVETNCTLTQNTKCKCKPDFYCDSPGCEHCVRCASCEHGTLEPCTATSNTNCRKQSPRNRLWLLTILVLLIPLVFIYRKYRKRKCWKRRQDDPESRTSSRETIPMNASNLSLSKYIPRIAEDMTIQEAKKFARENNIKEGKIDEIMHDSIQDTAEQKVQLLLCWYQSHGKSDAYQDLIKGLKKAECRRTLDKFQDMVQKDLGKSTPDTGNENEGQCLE

In turn, “FasL (from UniProt P41047 1-279) (ligand)” yielded a survival of p21–35-loaded WEHI-231 cells co-cultured with the cytolytic CD4+ T cell clone R3TB7, restored by increasing concentrations of an anti-FasL antibody (Annexin V / 7-AAD) (% of WEHI-231 cell survival) of 80.

These data come from publication PMC3467281.
